Experimental data reported in patent publication US20130052177.
pKd: −log10 of the molar value.

Experiments:
[1] = system: Flavo-KRS (monomeric full-length KRS with E. coli flavodoxin inserted at G310) (Homo sapiens / Escherichia coli fusion); experiment: EMSA; conditions: affinity from percent free tRNA; slightly weaker than native KRS; 0.1 uM tRNA; 20 mM HEPES pH 7.5, 20 mM KCl, 5 mM MgCl2, 2 mM DTT, on ice
[2] = biological target: KRS (lysyl-tRNA synthetase, full-length 1-597) (Homo sapiens) (UniProt Q15046); experiment: EMSA; conditions: affinity from percent free tRNA; 0.1 uM tRNA; 20 mM HEPES pH 7.5, 20 mM KCl, 5 mM MgCl2, 2 mM DTT, on ice
Sequence of KRS (lysyl-tRNA synthetase, full-length 1-597) (Homo sapiens) (Q15046 whole entry): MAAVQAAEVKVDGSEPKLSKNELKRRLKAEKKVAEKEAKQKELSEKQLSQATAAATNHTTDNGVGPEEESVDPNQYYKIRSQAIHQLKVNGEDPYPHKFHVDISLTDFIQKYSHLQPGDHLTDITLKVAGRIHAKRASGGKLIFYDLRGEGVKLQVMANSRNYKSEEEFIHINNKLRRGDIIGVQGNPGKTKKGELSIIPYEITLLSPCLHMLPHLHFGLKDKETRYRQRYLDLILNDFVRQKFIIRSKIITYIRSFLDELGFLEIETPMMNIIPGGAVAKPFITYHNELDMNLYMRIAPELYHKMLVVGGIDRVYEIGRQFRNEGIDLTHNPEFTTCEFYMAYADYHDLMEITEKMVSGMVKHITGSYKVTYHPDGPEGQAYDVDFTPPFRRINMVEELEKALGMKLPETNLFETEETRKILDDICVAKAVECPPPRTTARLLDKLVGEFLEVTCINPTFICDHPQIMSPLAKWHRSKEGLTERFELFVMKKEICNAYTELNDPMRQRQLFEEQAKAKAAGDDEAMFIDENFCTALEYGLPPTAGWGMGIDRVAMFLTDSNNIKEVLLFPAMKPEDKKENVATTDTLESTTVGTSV

**Q.** With human tRNALys3 (in vitro transcript) as the substance, how does the pKd [1] read?
**A.** 5.92

**Q.** And the pKd [2]?
**A.** 6.06
